Measurements published in patent publication US20250075191A1, “MODIFIED BIOLUMINESCENT ENZYMES” (Light Bio, Inc., priority 2023, published 2025).

B1: T99P: nnLuz luciferase variant with single amino acid substitution T99P (protein, UniProt A0A3G9JYH7 1-267, looked up, variant T99P)
Luciferase: MRINISLSSLFERLSKLSSRSIAITCGVVLASAIAFPIIRRDYQTFLEVGPSYAPQNFRGYIIVCVLSLFRQEQKGLAIYDRLPEKRRWLADLPFREGPRPSITSHIIQRQRTQLVDQEFATRELIDKVIPRVQARHTDKTFLSTSKFEFHAKAIFLLPSIPINDPLNIPSHDTVRRTKREIAHMHDYHDCTLHLALAAQDGKEVLKKGWGQRHPLAGPGVPGPPTEWTFLYAPRNEEEARVVEMIVEASIGYMTNDPAGKIVENAK
B2: nnLuz_WT: parental luciferase derived from Neonothopanus nambi (SEQ ID NO: 1) (protein, listed as Neonothopanus nambi)
chain: MRINISLSSLFERLSKLSSRSIAITCGVVLASAIAFPIIRRDYQTFLEVGPSYAPQNFRGYIIVCVLSLFRQEQKGLAIYDRLPEKRRWLADLPFREGTRPSITSHIIQRQRTQLVDQEFATRELIDKVIPRVQARHTDKTFLSTSKFEFHAKAIFLLPSIPINDPLNIPSHDTVRRTKREIAHMHDYHDCTLHLALAAQDGKEVLKKGWGQRHPLAGPGVPGPPTEWTFLYAPRNEEEARVVEMIVEASIGYMTNDPAGKIVENAK
B3: T192S: nnLuz luciferase variant with single amino acid substitution T192S (protein, listed as Neonothopanus nambi)
chain: MRINISLSSLFERLSKLSSRSIAITCGVVLASAIAFPIIRRDYQTFLEVGPSYAPQNFRGYIIVCVLSLFRQEQKGLAIYDRLPEKRRWLADLPFREGTRPSITSHIIQRQRTQLVDQEFATRELIDKVIPRVQARHTDKTFLSTSKFEFHAKAIFLLPSIPINDPLNIPSHDTVRRTKREIAHMHDYHDCSLHLALAAQDGKEVLKKGWGQRHPLAGPGVPGPPTEWTFLYAPRNEEEARVVEMIVEASIGYMTNDPAGKIVENAK
B4: A199P: nnLuz luciferase variant with single amino acid substitution A199P (protein, listed as Neonothopanus nambi)
chain: MRINISLSSLFERLSKLSSRSIAITCGVVLASAIAFPIIRRDYQTFLEVGPSYAPQNFRGYIIVCVLSLFRQEQKGLAIYDRLPEKRRWLADLPFREGTRPSITSHIIQRQRTQLVDQEFATRELIDKVIPRVQARHTDKTFLSTSKFEFHAKAIFLLPSIPINDPLNIPSHDTVRRTKREIAHMHDYHDCTLHLALAPQDGKEVLKKGWGQRHPLAGPGVPGPPTEWTFLYAPRNEEEARVVEMIVEASIGYMTNDPAGKIVENAK
B5: D37E: nnH3H hispidin hydroxylase variant with single substitution D37E (protein, listed as Neonothopanus nambi)
chain: MASFENSLSVLIVGAGLGGLAAAIALRRQGHVVKIYESSSFKAELGAGLAVPPNTLRSLQQLGCNTENLNGVDNLCFTAMGYDGSVGMMNNMTDYREAYGTSWIMVHRVDLHNELMRVALDPGGLGPPATLHLNHRVTFCDVDACTVTFTNGTTQSADLIVGADGIRSTIRRFVLEEDVTVPASGIVGFRWLVQADALDPYPELDWIVKKPPLGARLISTPQNPQSGVGLADRRTIIIYACRGGTMVNVLAVHDDERDQNTADWSVPASKDDLFRVFHDYHPRFRRLLELAQDINLWQMRVVPVLKKWVNKRVCLLGDAAHASLPTLGQGFGMGLEDAVALGTLLPKGTTASQIETRLAVYEQLRKDRAEFVAAESYEEQYVPEMRGLYLRSKELRDRVMGYDIKVESEKVLETLLRSSNSA
B6: M385K: nnH3H hispidin hydroxylase variant with single substitution M385K (protein, listed as Neonothopanus nambi)
chain: MASFENSLSVLIVGAGLGGLAAAIALRRQGHVVKIYDSSSFKAELGAGLAVPPNTLRSLQQLGCNTENLNGVDNLCFTAMGYDGSVGMMNNMTDYREAYGTSWIMVHRVDLHNELMRVALDPGGLGPPATLHLNHRVTFCDVDACTVTFTNGTTQSADLIVGADGIRSTIRRFVLEEDVTVPASGIVGFRWLVQADALDPYPELDWIVKKPPLGARLISTPQNPQSGVGLADRRTIIIYACRGGTMVNVLAVHDDERDQNTADWSVPASKDDLFRVFHDYHPRFRRLLELAQDINLWQMRVVPVLKKWVNKRVCLLGDAAHASLPTLGQGFGMGLEDAVALGTLLPKGTTASQIETRLAVYEQLRKDRAEFVAAESYEEQYVPEKRGLYLRSKELRDRVMGYDIKVESEKVLETLLRSSNSA
B7: V181I: nnH3H hispidin hydroxylase variant with single substitution V181I (protein, listed as Neonothopanus nambi)
chain: MASFENSLSVLIVGAGLGGLAAAIALRRQGHVVKIYDSSSFKAELGAGLAVPPNTLRSLQQLGCNTENLNGVDNLCFTAMGYDGSVGMMNNMTDYREAYGTSWIMVHRVDLHNELMRVALDPGGLGPPATLHLNHRVTFCDVDACTVTFTNGTTQSADLIVGADGIRSTIRRFVLEEDVTIPASGIVGFRWLVQADALDPYPELDWIVKKPPLGARLISTPQNPQSGVGLADRRTIIIYACRGGTMVNVLAVHDDERDQNTADWSVPASKDDLFRVFHDYHPRFRRLLELAQDINLWQMRVVPVLKKWVNKRVCLLGDAAHASLPTLGQGFGMGLEDAVALGTLLPKGTTASQIETRLAVYEQLRKDRAEFVAAESYEEQYVPEMRGLYLRSKELRDRVMGYDIKVESEKVLETLLRSSNSA
B8: S323M: nnH3H hispidin hydroxylase variant with single substitution S323M (protein, listed as Neonothopanus nambi)
chain: MASFENSLSVLIVGAGLGGLAAAIALRRQGHVVKIYDSSSFKAELGAGLAVPPNTLRSLQQLGCNTENLNGVDNLCFTAMGYDGSVGMMNNMTDYREAYGTSWIMVHRVDLHNELMRVALDPGGLGPPATLHLNHRVTFCDVDACTVTFTNGTTQSADLIVGADGIRSTIRRFVLEEDVTVPASGIVGFRWLVQADALDPYPELDWIVKKPPLGARLISTPQNPQSGVGLADRRTIIIYACRGGTMVNVLAVHDDERDQNTADWSVPASKDDLFRVFHDYHPRFRRLLELAQDINLWQMRVVPVLKKWVNKRVCLLGDAAHAMLPTLGQGFGMGLEDAVALGTLLPKGTTASQIETRLAVYEQLRKDRAEFVAAESYEEQYVPEMRGLYLRSKELRDRVMGYDIKVESEKVLETLLRSSNSA
B9: A183P: nnH3H hispidin hydroxylase variant with single substitution A183P (protein, listed as Neonothopanus nambi)
chain: MASFENSLSVLIVGAGLGGLAAAIALRRQGHVVKIYDSSSFKAELGAGLAVPPNTLRSLQQLGCNTENLNGVDNLCFTAMGYDGSVGMMNNMTDYREAYGTSWIMVHRVDLHNELMRVALDPGGLGPPATLHLNHRVTFCDVDACTVTFTNGTTQSADLIVGADGIRSTIRRFVLEEDVTVPPSGIVGFRWLVQADALDPYPELDWIVKKPPLGARLISTPQNPQSGVGLADRRTIIIYACRGGTMVNVLAVHDDERDQNTADWSVPASKDDLFRVFHDYHPRFRRLLELAQDINLWQMRVVPVLKKWVNKRVCLLGDAAHASLPTLGQGFGMGLEDAVALGTLLPKGTTASQIETRLAVYEQLRKDRAEFVAAESYEEQYVPEMRGLYLRSKELRDRVMGYDIKVESEKVLETLLRSSNSA

Legend:
[1] = Luciferase luminescence in E. coli lysates after luciferin addition; type: biochemical; conditions: 100 μM luciferin, maximal brightness
Description: A library of amino acid substitutions was created applying mutagenesis to a gene encoding the luciferase derived from Neonothopanus nambi (SEQ ID NO: 8). pF4Ag shuttle vector (Promega) was used for gene expression in E. coli (T7 promoter-driven expression) and mammalian cells (CMV promoter-driven expression). The pF4Ag vector backbone introduces a C-terminal 3×-FLAG-HiBiT tag. Site-directed mutagenesis was used to substitute consensus amino acids at selected position in the luciferase sequence. Gene expression was performed in the E. coli strain KRX (Promega), which enables rhamnose-inducible expression of T7 RNA polymerase.
Colonies (in triplicate) were used to inoculate LB broth containing ampicillin ([…]) and cultures grown overnight in 96-well microtiter plates (20 hours, 37° C.). Cultures were diluted into fresh LB containing 0.1% rhamnose and ampicillin and grown for 3 hours at 37° C. 50 μl of the induced culture was lysed for 5 minutes at ambient temperature with a reagent consisting of 25 mM HEPES pH 7.5 and 0.3×PLB (E1941 Promega). 50 μl of lysate was combined with 50 μl luciferin (100 μM) in the lysis buffer and samples were measured for total luminescence using a GloMax®-Multi+luminometer. (Promega).

[2] = Enzyme thermostability in cleared E. coli lysates incubated at 22° C.; type: biochemical; conditions: then 100 μM luciferin
Protocol: To assess the effect on enzyme thermostability by the amino acid substitutions, lysates of transformed E. coli were prepared by sonication and cleared by centrifugation. The cleared lysates were diluted 1:100 into Tris-buffered saline with 0.01% BSA and 0.1% n-dodecyl β-D-maltoside. 100 μl of each diluted lysate were added to a 96-well PCR plate. Samples were incubated at 22° C. and at various time points aliquots were placed on ice. When all of the samples were processed, 50 μl of each was combined with 50 μl of 100 μM luciferin in Tris-buffered saline with 0.01% BSA and 0.1% n-dodecyl β-D-maltoside. Samples were immediately placed in a GloMax®-Multi+luminometer (Promega) to measure bioluminescence.

[3] = test system: yeast cells (P. pastoris); test: Stability of luciferase within yeast cells after 10 min incubation at different temperatures; type: cell-based; conditions: then luciferin
Protocol: To evaluate stability of nnLuz_WT and nnLuz_v4 within yeast cells, strains expressing nnLuz WT or nnLux_v4 were grown on plates for 24 hours, then resuspended in PBS to final OD (600 nm)=5 and 50 μl was placed in wells of a 96-well PCR plate. Different portions of the plate were incubated at different temperatures for 10 minutes using a gradient thermal cycler. The plate were then placed on ice for 5 minutes and 10 μl of 500 μM luciferin (2% DMSO, 10 mM thioglycolic acid, 0.1% DDM in DPBS) were added to each well. Then 25 μl of suspension from each well was transferred to a black 96-well plate containing 0.2 M sodium phosphate buffer with 0.5 M Na2SO4,pH=8.

[4] = test system: HEK293 cells; test: Hispidin hydroxylase activity in HEK293 cells co-transfected with nnLuz_v3, hispidin added, normalized to HiBiT; type: cell-based
Protocol: A library of amino acid substitutions was created applying mutagenesis to a gene encoding the hispidin hydroxylase derived from Neonothopanus nambi (SEQ ID NO: 12). This was achieved by the same method as described in Example 1. Activity was evaluated in HEK293 cells co-transfected with a gene encoding nnLuz_v3. Bioluminescence was measured as described in Example 1, except with addition of hispidin instead of luciferin.
To estimate specific activity, both luciferase activity and HiBiT were measure for each sample (see Example 2). Activity of each variant was then normalized to the expression level (i.e., luciferase bioluminescence/HiBiT signal). Substitutions at 28 positions were examined by this method.

Molecule | production of bioluminescence relative to parental nnLuz [1] | enzyme stability relative to unmodified parental luciferase [2] | bioluminescence over parental enzyme nnH3H_WT, normalized to expression level (HiBiT) [4] | other results
B1 | significant improvements | more stable |  | 
B2 |  |  |  | reduction of luminescence after incubation at 40° C. ([3]; 10 min at 40° C.): > 3 fold; reduction of luminescence after incubation at 45° C. ([3]; 10 min at 45° C.): 100 fold
B3 | significant improvements | more stable |  | 
B4 | significant improvements | more stable |  | 
B5 |  |  | significantly increased bioluminescence | 
B6 |  |  | significantly increased bioluminescence | 
B7 |  |  | significantly increased bioluminescence | 
B8 |  |  | significantly increased bioluminescence | 
B9 |  |  | significantly increased bioluminescence | 
